Measured values from patent publication US8124742.
Substitutions are numbered along the chain they refer to.

T1: human Rh(D) antigen on Rh(D)-positive red blood cells (human, UniProt Q02161 2-417)
T1 construct: whole, on cells; also called wt; wild type Rh(D)
T1 sequence (looked up): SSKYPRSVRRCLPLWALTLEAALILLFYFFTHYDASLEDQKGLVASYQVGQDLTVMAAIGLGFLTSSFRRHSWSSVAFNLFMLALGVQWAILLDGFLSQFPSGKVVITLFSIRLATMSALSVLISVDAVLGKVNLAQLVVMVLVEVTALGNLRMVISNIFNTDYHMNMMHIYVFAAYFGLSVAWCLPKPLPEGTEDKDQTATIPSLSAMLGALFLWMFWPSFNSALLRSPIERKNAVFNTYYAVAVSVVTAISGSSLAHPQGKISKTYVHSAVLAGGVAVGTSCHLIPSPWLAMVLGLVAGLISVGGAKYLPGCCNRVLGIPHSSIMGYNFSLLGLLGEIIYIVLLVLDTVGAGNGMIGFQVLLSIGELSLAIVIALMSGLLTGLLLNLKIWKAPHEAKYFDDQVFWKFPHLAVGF

B1: SH20 (Fab, V domains shown)
VH: VQLLEESGGGVVQPGRSLRLSCAASGFTFRSYAMHWVRQAPGKGLEWVAVISYDGSTIYYADSVKGRFTISRANSKNTLFLQMNSLRTEDTAVYYCTRGGFYYDSSGYYGLRHYFDYWGQGTLVTVSS
VL: AELTQSPFSLSASVGDRVTITCRASQSISRSLNWYQHKPGEAPKLLIYAASSLQRGVPPRFSGSGSGTDFTLTISSLQPEDFATYFCQQSVRIPYSFGQGTKLEIKR
notes: Fab on M13 phage
B2: SH24 (Fab, V domains shown)
VH: EVQLLESGGGVAQPGRSLRLSCVASGFSLRSYGMHWVRQAPGKGLEWVADIWFDGSNKDYADSVKGRFTISRDNSKNTLYLQMNSLRAEDTAVYYCARDWRVRAFSSGWLSAFDIWGQGTMVTVSS
VL: AELTQSPSSLSASVGDRVTITCRASQSISTYLNWYQQRPGKAPNLLIYAASTLQRGVPSRFTGSGSGTDFTLTISSLQPEDFATYYCQQSYTTLWTFGQGTKMEIRR
notes: Fab on M13 phage
B3: SH28 (Fab, V domains shown)
VH: EVQLLESGGGGVQPGRSLRLSCAASGFTFNSYAMYWVRQPPGKGLEWVAAIWYDGSNKEYADFVKGRFTISRDNSKNTLSLQMNSLRDEDTAVYYCAREANLLRGWSRYYYGMDVWGQGTTVTVSS
VL: AELTQSPSSLSASVGDRVTITCRADQNIRRSLNWFQQKPGKAPKLLIYAASSLQSGVPSRFSGSGSGTDFTLTISSLQPEDFATYYCQQSSSTPWTFGRGTKVEIKR
notes: Fab on M13 phage
B4: SH50 (Fab, V domains shown)
VH: B3 VH
VL: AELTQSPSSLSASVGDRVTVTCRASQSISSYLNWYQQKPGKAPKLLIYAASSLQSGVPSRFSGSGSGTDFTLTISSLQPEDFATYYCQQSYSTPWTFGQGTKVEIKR
notes: Fab on M13 phage
B5: SH08 (Fab, V domains shown)
VH: EVQLLESGGGVVQPGRSLRLSCAVSGFTLTNYGMHWVRQAPGKGLEWVAHVWYDGSKTEYADSVKGRFAVSRDKSKNTLFLQMNSLTAEDTAIYYCARERREKVYILFYSWLDRWGQGTLVTVSS
VL: AELTQSPSSLAASVGDRVTITCRANQTIRTSLNWYQQRPGKAPNLLIYGASRLHSGVPSRFSGGISGADFTLTISSLQPEDFATYYCQQTYGYSRTFGQGTKVDIKR
notes: Fab on M13 phage; also called SH8
B6: SH30 (Fab, V domains shown)
VH: B5 VH
VL: AELTQSPSSLSASVGDRVTITCRASQSIRRSLNWYQQSPGKTPKLLIYAASSLQSGVPSRFSGSGSGTDFTLTISSLQPEDFATYYCQQSYSTLTFGGGTKVEIKR
notes: Fab on M13 phage
B7: SH18 (Fab, V domains shown)
VH: EVQLLESGGGVVQPGRSLRLSCAASGFTFRSYAMHWVRQAPGKGLEWVAATAYDGKNKYYADSVKGRFTISRDNSMNTLFLQMNSLRAEDTAVFYCARGGFYYDSSGYYGLRHYFDSWGQGTLVTVSS
VL: AELTQSPSSLSASVGDRVTITCRASQSISIALNWYQQRPGKAPKLLMYATSTLQSGVPSRFSGSGSGTDFTLTISSLQPEDFATYYCQQYYNKPTFGPGTKVDIKR
notes: Fab on M13 phage
B8: SH32 (Fab, V domains shown)
VH: EVQLLESGGGVVQPGRSLRLSCEASKFTLYNYGMHWVRQAPGKGLEWVAFIWFDGSNKYYEDSVKGRFTVSRDNSKNTLYLQMNSLRAEDTAVYYCARELSKKVALSRYYYYMDVWGQGTTVTVSS
VL: AELTQEPSLTVSPGGTVTLTCASSTGAVTSRYFPNWFQQKPGQAPRALIYGSNNKHSWTPARFSGSLLGGKAALTLSGVQPEDEAEYYCLLFYAGAWAFGGGTKLTVL
notes: Fab on M13 phage
B9: SH36 (Fab, V domains shown)
VH: B8 VH with L100G
VL: AELTQSPSSLSASVGDRVTITCRASQSISSYLNWYQQKPGKSPKLLIYAASSLQSGVPSRFSGSGSGTDFTLTISSLQPEDFATYYCQQSYSTPPAFGPGTKVDIKR
notes: Fab on M13 phage
B10: SH37 (Fab, V domains shown)
VH: B8 VH
VL: AELQDPVVSVALGQTVKITCQGDSLRKYYASWYQQKPGQAPVLVFYARNSRPSGIPDRFSGSNSGTTASLTIAGARAEDEADYYCHSRDSNGHHRVFGGGTKLTVL
notes: Fab on M13 phage
B11: SH10 (Fab, V domains shown)
VH: VQLLEESGGGVVQPGRSLRLSCAASGFTFSRNGMHWVRQAPGKGLEWVAFIWFDGSNKYYADSVKGRFTISRDNSKNTLYLQMNSLRADDTAVYYCAREEALFRGLTRWSYGMDVWGQGTTVSVSS
VL: AELQDPVVSVALGQTVRITCQGDGLRSYYASWYQQKPGQAPKLVMYGRNNRPSGIPGRFSGSSSGQTAALTITGTQAEDEADYYCQSRATSGNPVVFGGGTKLTVL
notes: Fab on M13 phage
B12: SH16 (Fab, V domains shown)
VH: EVQLLESGGGVVQPGRSLRLSCAASGFTFSSYGMHWVRQAPGRGLEWVALIWYDGGNKEYADSVKGRFSISRDNSKNTLYLQVNSLRADDTAVYYCARDQRAAAGIFYYSRMDVWGQGTTVTVSS
VL: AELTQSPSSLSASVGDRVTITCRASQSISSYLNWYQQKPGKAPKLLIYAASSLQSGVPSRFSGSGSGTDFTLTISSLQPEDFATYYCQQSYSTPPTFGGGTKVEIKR
notes: Fab on M13 phage
B13: SH14 (Fab, V domains shown)
VH: EVQLLESGGGVVQPGRSLRLSCAASGFTFSTYGMHWVRQAPGKGLEWVAVIWFDGSNKEYADSVKGRFTISRDNSKNTLYLQMNSLRAEDTAVYYCAREEVVRGVILWSRKFDYWGQGTLVTVSS
VL: AELTQSPSSLSASVGDRVTITCRASQNIRRSLNWYQHKPGRAPRLLIYAASTLQSGVPSRFRGSGSGTDFTLTINSLQPADFATYYCQQSSNTPWTFGHGTKVEIKR
notes: Fab on M13 phage
B14: SH39 (Fab, V domains shown)
VH: B13 VH with E1V, V2Q, Q3L, L5E, E6Q, T31S
VL: AELTQSPSSLSASVGDRVTITCRASQTIGRYLNWYQQRPGKAPKLLVYAVSSLQSGAPSRFSGSGSGTHFTLTITSLQPEDFATYFCQQSYSSPFTFGQGTKVEIKR
notes: Fab on M13 phage
B15: SH25 (Fab, V domains shown)
VH: VQLLEESGGGVVQPGRSLRLACAASGFSFRSYGMHWVRQAPGRGLEWVAFTWFDGSNKYYVDSVKGRFTISRDNSKNTLYLEMNSLRVDDTAVYYCAREAPMLRGISRYYYAMDVWGPGTTVTVSS
VL: B3 VL with D25S, F35Y, S92N, R99Q
notes: Fab on M13 phage
B16: SH12 (Fab, V domains shown)
VH: B13 VH with I70V
VL: AELTQSPFSLSASVGDRVTITCRASHNIYRSLNWFQHKPGEAPKLLVYAASSLQRGVPTRFSGSGSGTDFTLTISSLQPEDSATYFCQQSVTFPYTFGQGTKLEIRR
notes: Fab on M13 phage
B17: SH21 (Fab, V domains shown)
VH: B13 VH with I70V
VL: AELTQSPSFLSASVGDRVTITCRASQGIRSYLAWYQQKPGKAPKLLIYAASTLQSGVPSRFSGSGSGTEFTLTIASLQPDDFATYYCQQLNNYPPFTFGPGTKVDIKR
notes: Fab on M13 phage
B18: SH04 (Fab, V domains shown)
VH: B13 VH
VL: B3 VL with D25S, F35Y, S92N, R99Q
notes: Fab on M13 phage
B19: SH26 (Fab, V domains shown)
VH: EVQLLESGGGVVQPGRSLRLSCVVSGFTFNNYGMHWVRQAPGKGLEWVAVIWFDGSNKYYADSVKGRFTISRDNSKNTLYLQMNSLRAEDTAVYYCARENQIKLWSRYLYYFDYWGQGTLVTVSS
VL: AELTQSPSSLSASVGDRVTITCRASQSISSYLNWYQQKPGKAPKLLIYAASSLQSGVPSRFSGSGSGTDFTLTISSLQPEDFATYYCQQSYSFRRYSFGQGTKLEIKR
notes: Fab on M13 phage
B20: SH34 (Fab, V domains shown)
VH: EVQLLESGGGVVQPGRSLRLSCAASGFSFSSYGMHWVRQAPGKGLEWVAVISYDGTNKYFADSVKGRFTISRDNSKKTLYLQMTSLRPEDTAVYFCANLRGEVTRRASVPLDIWGQGTMVTVSS
VL: B19 VL with S52G, F93T, R94P, R95P, S97T
notes: Fab on M13 phage

molecular target: T1, human Rh(D) antigen on Rh(D)-positive …; assay: agglutination, anti-M13
Procedure: The binding of anti-Rh(D) Fab/phage or soluble Fab molecules to normal or partial Rh(D) antigens was assessed by indirect agglutination assays as described (Siegel et al., 1994, Blood 83:2334; Siegel et al., 1997, J. Immunol. Meth. 206: 73). […] Following a one-hour incubation at 37° C., the RBCs were washed 3 times with 2 ml of cold PBS to remove unbound antibody. The resulting RBC pellets were resuspended in 100 μl of a 10 μg/ml solution of sheep anti-M13 antibody (5 Prime-3 Prime, Boulder, Colo.) for Fab/phage experiments or goat anti-human κ or λ light chain antibody (Tago, Burlingame, Calif.) for $\gamma_1\kappa$ or $\gamma_1\lambda$ soluble Fab experiments, respectively. The RBC suspensions were transferred to the round-bottomed wells of a 96-well microplate and left undisturbed for 2 hours. Negative reactions show sharp ~2 millimeter diameter RBC spots whereas the RBCs in agglutinated wells form a thin carpet coating the entire floor of the well (Siegel et al., 1997, J. Immunol. Meth. 206:73). Agglutination titers for recombinant antibodies were determined by performing serial 2-fold dilutions in 1% BSA/PBS.
Fifty-six randomly chosen colonies were selected, and monoclonal Fab/phage preparations were separately produced from each of these individual colonies, using the methods described herein in Example 1. Rh(D) specificity was determined by indirect agglutination using anti-M13 antibody, as described herein in Examples 1 and 2.

Row | Binder | binding result
1 | B1 | binds
2 | B2 | binds
3 | B3 | binds
4 | B4 | binds
5 | B5 | binds
6 | B6 | binds
7 | B7 | binds
8 | B8 | binds
9 | B9 | binds
10 | B10 | binds
11 | B11 | binds
12 | B12 | binds
13 | B13 | binds
14 | B14 | binds
15 | B15 | binds
16 | B16 | binds
17 | B17 | binds
18 | B18 | binds
19 | B19 | binds
20 | B20 | binds
